# Measured values as given in US20140193378A1 (UNIVERSITY OF MIAMI, published 2014).
# Non-standard residues stand in square brackets, D forms with d. No end group written: not given here. *: point of attachment. Desaminotyrosyl = O=C(CCc1ccc(O)cc1)*; NMeY = CN[C@@H](Cc1ccc(O)cc1)C(=O)O; Agmatine = N=C(N)NCCCCN*; Nle = CCCC[C@H](N)C(=O)O; Orn = NCCC[C@H](N)C(=O)O; dAbu = CC[C@@H](N)C(=O)O; Abu = CC[C@H](N)C(=O)O; Aoc = NCCCCCCCC(=O)O; GABA = NCCCC(=O)O
# T1: human GHRH receptor (human pituitary membrane homogenates) (human), Q02643
# T1 chain: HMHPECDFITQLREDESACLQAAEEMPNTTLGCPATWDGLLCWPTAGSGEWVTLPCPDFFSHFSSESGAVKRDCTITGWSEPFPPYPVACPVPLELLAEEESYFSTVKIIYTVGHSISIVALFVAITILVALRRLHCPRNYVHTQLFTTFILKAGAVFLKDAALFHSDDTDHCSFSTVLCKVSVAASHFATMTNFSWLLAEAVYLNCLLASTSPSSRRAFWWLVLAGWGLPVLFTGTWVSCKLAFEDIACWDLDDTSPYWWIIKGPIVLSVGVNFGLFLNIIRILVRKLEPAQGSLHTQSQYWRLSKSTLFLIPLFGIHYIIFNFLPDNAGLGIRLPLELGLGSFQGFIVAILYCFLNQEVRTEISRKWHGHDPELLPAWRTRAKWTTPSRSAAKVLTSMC
# T2: human GHRH receptor (human pituitary membrane homogenates) (human, UniProt Q02643 23-423)
# T2 construct: whole, on cells; Native receptor in human pituitary membrane homogenates, not on intact cells; also called hGHRH receptor
# T2 sequence (looked up): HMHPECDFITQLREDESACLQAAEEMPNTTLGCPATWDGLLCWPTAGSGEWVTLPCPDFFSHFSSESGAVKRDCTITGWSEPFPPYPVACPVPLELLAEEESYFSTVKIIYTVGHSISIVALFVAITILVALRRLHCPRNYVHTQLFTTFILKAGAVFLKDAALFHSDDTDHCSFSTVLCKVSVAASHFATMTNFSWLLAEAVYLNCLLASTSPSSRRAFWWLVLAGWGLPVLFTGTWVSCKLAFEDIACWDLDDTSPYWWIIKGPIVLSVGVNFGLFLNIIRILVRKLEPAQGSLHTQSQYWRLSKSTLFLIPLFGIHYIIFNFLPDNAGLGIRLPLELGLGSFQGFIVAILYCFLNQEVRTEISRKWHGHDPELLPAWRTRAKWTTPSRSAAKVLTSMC
# Molecular target: T1, human GHRH receptor (human pituitary …)
# Assay: radioligand competition vs 125I-JV-1-42 (0.2 nM), human pituitary membranes
Binder,IC50 [nM],Relative affinity (Binding potency) vs JI-38 [fold]
"[NMeY][Abu]DAIFTNSYR[Orn]VL[Abu]QLSAR[Orn]LLQDI[Nle]SR[GABA]-NH2 (N-terminus assumed; SMILES CCCC[C@H](NC(=O)[C@@H](NC(=O)[C@H](CC(=O)O)NC(=O)[C@H](CCC(N)=O)NC(=O)[C@H](CC(C)C)NC(=O)[C@H](CC(C)C)NC(=O)[C@H](CCCN)NC(=O)[C@H](CCCNC(=N)N)NC(=O)[C@H](C)NC(=O)[C@H](CO)NC(=O)[C@H](CC(C)C)NC(=O)[C@H](CCC(N)=O)NC(=O)[C@H](CC)NC(=O)[C@H](CC(C)C)NC(=O)[C@@H](NC(=O)[C@H](CCCN)NC(=O)[C@H](CCCNC(=N)N)NC(=O)[C@H](Cc1ccc(O)cc1)NC(=O)[C@H](CO)NC(=O)[C@H](CC(N)=O)NC(=O)[C@@H](NC(=O)[C@H](Cc1ccccc1)NC(=O)[C@@H](NC(=O)[C@H](C)NC(=O)[C@H](CC(=O)O)NC(=O)[C@H](CC)NC(=O)[C@H](Cc1ccc(O)cc1)NC)[C@@H](C)CC)[C@@H](C)O)C(C)C)[C@@H](C)CC)C(=O)N[C@@H](CO)C(=O)N[C@@H](CCCNC(=N)N)C(=O)NCCCC(N)=O) [P-25503 [N-Me-Tyr^1, Abu^2, Orn^12, Abu^15, Orn^21, Nle^27, Gab^30]hGHRH(1-30)NH2]",1.18,3.67
"[NMeY]ADAIFTNSYR[Orn]VL[Abu]QLSAR[Orn]LLQDI[Nle]DR[Aoc]-NH2 (N-terminus assumed; SMILES CCCC[C@H](NC(=O)[C@@H](NC(=O)[C@H](CC(=O)O)NC(=O)[C@H](CCC(N)=O)NC(=O)[C@H](CC(C)C)NC(=O)[C@H](CC(C)C)NC(=O)[C@H](CCCN)NC(=O)[C@H](CCCNC(=N)N)NC(=O)[C@H](C)NC(=O)[C@H](CO)NC(=O)[C@H](CC(C)C)NC(=O)[C@H](CCC(N)=O)NC(=O)[C@H](CC)NC(=O)[C@H](CC(C)C)NC(=O)[C@@H](NC(=O)[C@H](CCCN)NC(=O)[C@H](CCCNC(=N)N)NC(=O)[C@H](Cc1ccc(O)cc1)NC(=O)[C@H](CO)NC(=O)[C@H](CC(N)=O)NC(=O)[C@@H](NC(=O)[C@H](Cc1ccccc1)NC(=O)[C@@H](NC(=O)[C@H](C)NC(=O)[C@H](CC(=O)O)NC(=O)[C@H](C)NC(=O)[C@H](Cc1ccc(O)cc1)NC)[C@@H](C)CC)[C@@H](C)O)C(C)C)[C@@H](C)CC)C(=O)N[C@@H](CC(=O)O)C(=O)N[C@@H](CCCNC(=N)N)C(=O)NCCCCCCCC(N)=O) [P-21301 [N-Me-Tyr^1, Orn^12, Abu^15, Orn^21, Nle^27, Asp^28, Amc^30]hGHRH(1-30)NH2]",2.99,1.45
"[NMeY]ADAIFTQSYR[Orn]VL[Abu]QLSAR[Orn]LLQDI[Nle]SRQ[GABA]-NH2 (N-terminus assumed; SMILES CCCC[C@H](NC(=O)[C@@H](NC(=O)[C@H](CC(=O)O)NC(=O)[C@H](CCC(N)=O)NC(=O)[C@H](CC(C)C)NC(=O)[C@H](CC(C)C)NC(=O)[C@H](CCCN)NC(=O)[C@H](CCCNC(=N)N)NC(=O)[C@H](C)NC(=O)[C@H](CO)NC(=O)[C@H](CC(C)C)NC(=O)[C@H](CCC(N)=O)NC(=O)[C@H](CC)NC(=O)[C@H](CC(C)C)NC(=O)[C@@H](NC(=O)[C@H](CCCN)NC(=O)[C@H](CCCNC(=N)N)NC(=O)[C@H](Cc1ccc(O)cc1)NC(=O)[C@H](CO)NC(=O)[C@H](CCC(N)=O)NC(=O)[C@@H](NC(=O)[C@H](Cc1ccccc1)NC(=O)[C@@H](NC(=O)[C@H](C)NC(=O)[C@H](CC(=O)O)NC(=O)[C@H](C)NC(=O)[C@H](Cc1ccc(O)cc1)NC)[C@@H](C)CC)[C@@H](C)O)C(C)C)[C@@H](C)CC)C(=O)N[C@@H](CO)C(=O)N[C@@H](CCCNC(=N)N)C(=O)N[C@@H](CCC(N)=O)C(=O)NCCCC(N)=O) [P-29703 [N-Me-Tyr^1, Gln^8, Orn^12, Abu^15, Orn^21, Nle^27, Gln-Gab^30]hGHRH(1-30)NH2]",,3.57
"[NMeY]ADAIFTQSYR[Orn]VL[Abu]QLSAR[Orn]LLQDI[Nle]SR-NHMe [P-27405 [N-Me-Tyr^1, Gln^8, Orn^12, Abu^15, Orn^21, Nle^27]hGHRH(1-29)NH-CH3]",1.08,4.03
"[NMeY]ADAIFTNSYR[Orn]VL[Abu]QLSAR[Orn]LLQDI[Nle]SR[GABA]-NHMe [P-27415 [N-Me-Tyr^1, Orn^12, Abu^15, Orn^21, Nle^27, Gab^30]hGHRH(1-30)NH-CH3]",3.02,1.44

# Molecular target: T2, human GHRH receptor (human pituitary …)
# Assay: as above
# Description: Normal human pituitaries were purchased from the National Hormone and Peptide Program (A. F. Parlow, Los Angeles, County Harbor-UCLA Medical Center, Torrance, Calif.).
row,Binder,Relative affinity (Binding potency) vs JI-38 [fold]
1,"[Desaminotyrosyl][dAbu]DAIFTNSYR[Orn]VL[Abu]QLSAR[Orn]LLQDI[Nle]SR[GABA]-NH2 (SMILES CCCC[C@H](NC(=O)[C@@H](NC(=O)[C@H](CC(=O)O)NC(=O)[C@H](CCC(N)=O)NC(=O)[C@H](CC(C)C)NC(=O)[C@H](CC(C)C)NC(=O)[C@H](CCCN)NC(=O)[C@H](CCCNC(=N)N)NC(=O)[C@H](C)NC(=O)[C@H](CO)NC(=O)[C@H](CC(C)C)NC(=O)[C@H](CCC(N)=O)NC(=O)[C@H](CC)NC(=O)[C@H](CC(C)C)NC(=O)[C@@H](NC(=O)[C@H](CCCN)NC(=O)[C@H](CCCNC(=N)N)NC(=O)[C@H](Cc1ccc(O)cc1)NC(=O)[C@H](CO)NC(=O)[C@H](CC(N)=O)NC(=O)[C@@H](NC(=O)[C@H](Cc1ccccc1)NC(=O)[C@@H](NC(=O)[C@H](C)NC(=O)[C@H](CC(=O)O)NC(=O)[C@@H](CC)NC(=O)CCc1ccc(O)cc1)[C@@H](C)CC)[C@@H](C)O)C(C)C)[C@@H](C)CC)C(=O)N[C@@H](CO)C(=O)N[C@@H](CCCNC(=N)N)C(=O)NCCCC(N)=O, also called Peptide 25504) [P-25504 [Dat^1, D-Abu^2, Orn^12, Abu^15, Orn^21, Nle^27, Gab^30]hGHRH(1-30)NH2]",3.02
2,"[NMeY][dA]DAIFTQSYR[Orn]VL[Abu]QLSAR[Orn]LLQDI[Nle]D[Agmatine] (also called Peptide 20361) [P-20361 [N-Me-Tyr^1, D-Ala^2, Gln^8, Orn^12, Abu^15, Orn^21, Nle^27, Asp^28, Agm^29]hGHRH(1-29)NH2]",5.3
3,"[NMeY][dA]DAIFTNSYR[Orn]VL[Abu]QLSAR[Orn]LLQDI[Nle]DR[Aoc]-NH2 (N-terminus assumed; SMILES CCCC[C@H](NC(=O)[C@@H](NC(=O)[C@H](CC(=O)O)NC(=O)[C@H](CCC(N)=O)NC(=O)[C@H](CC(C)C)NC(=O)[C@H](CC(C)C)NC(=O)[C@H](CCCN)NC(=O)[C@H](CCCNC(=N)N)NC(=O)[C@H](C)NC(=O)[C@H](CO)NC(=O)[C@H](CC(C)C)NC(=O)[C@H](CCC(N)=O)NC(=O)[C@H](CC)NC(=O)[C@H](CC(C)C)NC(=O)[C@@H](NC(=O)[C@H](CCCN)NC(=O)[C@H](CCCNC(=N)N)NC(=O)[C@H](Cc1ccc(O)cc1)NC(=O)[C@H](CO)NC(=O)[C@H](CC(N)=O)NC(=O)[C@@H](NC(=O)[C@H](Cc1ccccc1)NC(=O)[C@@H](NC(=O)[C@H](C)NC(=O)[C@H](CC(=O)O)NC(=O)[C@@H](C)NC(=O)[C@H](Cc1ccc(O)cc1)NC)[C@@H](C)CC)[C@@H](C)O)C(C)C)[C@@H](C)CC)C(=O)N[C@@H](CC(=O)O)C(=O)N[C@@H](CCCNC(=N)N)C(=O)NCCCCCCCC(N)=O, also called Peptide 21303) [P-21303 [N-Me-Tyr^1, D-Ala^2, Orn^12, Abu^15, Orn^21, Nle^27, Asp^28, Amc^30]hGHRH(1-30)NH2]",2.32
4,"[Desaminotyrosyl][dA]DAIFTNSYR[Orn]VL[Abu]QLSAR[Orn]LLQDI[Nle]DR[Aoc]-NH2 (SMILES CCCC[C@H](NC(=O)[C@@H](NC(=O)[C@H](CC(=O)O)NC(=O)[C@H](CCC(N)=O)NC(=O)[C@H](CC(C)C)NC(=O)[C@H](CC(C)C)NC(=O)[C@H](CCCN)NC(=O)[C@H](CCCNC(=N)N)NC(=O)[C@H](C)NC(=O)[C@H](CO)NC(=O)[C@H](CC(C)C)NC(=O)[C@H](CCC(N)=O)NC(=O)[C@H](CC)NC(=O)[C@H](CC(C)C)NC(=O)[C@@H](NC(=O)[C@H](CCCN)NC(=O)[C@H](CCCNC(=N)N)NC(=O)[C@H](Cc1ccc(O)cc1)NC(=O)[C@H](CO)NC(=O)[C@H](CC(N)=O)NC(=O)[C@@H](NC(=O)[C@H](Cc1ccccc1)NC(=O)[C@@H](NC(=O)[C@H](C)NC(=O)[C@H](CC(=O)O)NC(=O)[C@@H](C)NC(=O)CCc1ccc(O)cc1)[C@@H](C)CC)[C@@H](C)O)C(C)C)[C@@H](C)CC)C(=O)N[C@@H](CC(=O)O)C(=O)N[C@@H](CCCNC(=N)N)C(=O)NCCCCCCCC(N)=O, also called Peptide 21300) [P-21300 [Dat^1, D-Ala^2, Orn^12, Abu^15, Orn^21, Nle^27, Asp^28, Amc^30]hGHRH(1-30)NH2]",1.2
5,"Ac-[NMeY][dA]DAIFTQSYR[Orn]VL[Abu]QLSAR[Orn]LLQDI[Nle]D[Agmatine] (SMILES CCCC[C@H](NC(=O)[C@@H](NC(=O)[C@H](CC(=O)O)NC(=O)[C@H](CCC(N)=O)NC(=O)[C@H](CC(C)C)NC(=O)[C@H](CC(C)C)NC(=O)[C@H](CCCN)NC(=O)[C@H](CCCNC(=N)N)NC(=O)[C@H](C)NC(=O)[C@H](CO)NC(=O)[C@H](CC(C)C)NC(=O)[C@H](CCC(N)=O)NC(=O)[C@H](CC)NC(=O)[C@H](CC(C)C)NC(=O)[C@@H](NC(=O)[C@H](CCCN)NC(=O)[C@H](CCCNC(=N)N)NC(=O)[C@H](Cc1ccc(O)cc1)NC(=O)[C@H](CO)NC(=O)[C@H](CCC(N)=O)NC(=O)[C@@H](NC(=O)[C@H](Cc1ccccc1)NC(=O)[C@@H](NC(=O)[C@H](C)NC(=O)[C@H](CC(=O)O)NC(=O)[C@@H](C)NC(=O)[C@H](Cc1ccc(O)cc1)N(C)C(C)=O)[C@@H](C)CC)[C@@H](C)O)C(C)C)[C@@H](C)CC)C(=O)N[C@@H](CC(=O)O)C(=O)NCCCCNC(=N)N, also called Peptide 20351)",1.26
